The source of these data is US20240228562A1, “NOVEL LIPOCALIN MUTEINS SPECIFIC FOR CONNECTIVE TISSUE GROWTH FACTOR (CTGF)” (PIERIS PHARMACEUTICALS GMBH, priority 2021, published 2024).

A short description of data set [1]: Thermal stability assessment by nanoDSC. The data set is classed as physicochemical. The conditions noted are these: 1 mg/mL in PBS, scan 25-100° C. at 1° C./min; for TM: major transition. How it is done:
To determine the melting temperatures (Tms) of the lipocalin muteins, which is a general indicator for folding stability, the CTGF specific muteins, at a protein concentration of 1 mg/mL in PBS (Gibco), were scanned (25-100° C.) at 1° C./min using a capillary nanoDSC instrument (CSC 6300, TA Instruments). […] Several unfolding events can contribute to the observed thermogram. In cases with multiple transitions, the one with the major unfolding energy best represents the overall protein fold and is reported. Muteins were produced as described in Example 3. SEQ ID NOs: 3, 7, 9, 25, and 29 were expressed using E. coli, the other muteins were expressed using CHO cells.
The resulting maximum melting temperatures as well as the onset temperature of melting for exemplary lipocalin muteins and fusion proteins are listed in Table 3 below.

Data set [2] deals with T1, human CTGF (Homo sapiens, UniProt P29279).
T1 construct: purchased Creative Biomart
In words: SPR binding kinetics and affinity, human CTGF. Also noted: key to human CTGF kon / human CTGF koff / human CTGF KD: B binding without determination of kinetics constants. The conditions noted are these: 25° C., 1:1 binding model. The procedure:
(§1) Surface plasmon resonance (SPR) was used to measure binding kinetics and affinity of the representative lipocalin muteins disclosed herein.
(§2) The binding of exemplary lipocalin muteins to human (Creative Biomart), cynomolgus, rat (R&D Systems) and mouse CTGF (Abbexa) was determined by SPR using a Biacore instrument (Cytiva, formerly GE Healthcare). Some targets were fused to a human IgG1 Fc tag, and captured via the anti-human IgG antibody kit, others were directly immobilized.
(§3) For some measurements, human CTGF with a human IgG1 Fc Tag or rat or murine CTGF without a tag were directly immobilized to a CM5 Chip. The carboxyl groups on the chip were activated using 1-ethyl-3-(3-dimethylaminopropyl)-carbodiimide (EDC) and N-hydroxysuccinimide (NHS). Subsequently, the targets at a concentration of 3-5 μg/mL in 10 mM sodium acetate (pH) 4.5 were applied at a flow rate of 10 μL/min until an immobilization level of 300-1100 resonance units was achieved. Residual non-reacted NHS-esters were blocked by passing a solution of 1 M ethanolamine across the surface. The reference channel was activated/deactivated. For the capture setting, targets with an IgG Fc Tag at 0.25-2.5 μg/mL in HBS-EP+ buffer were captured by the anti-human IgG-Fc antibody at the chip surface for 180 s at a flow rate of 10 μL/min.
(§4) The binding assay was carried out with a contact time of 180 s, a dissociation time of 900-3600 s and a flow rate of 30 μL/min. All measurements were performed at 25° C. […] For the directly immobilized targets, the same regeneration conditions were used. Prior to the protein measurements, three startup cycles were performed for conditioning purposes. Data were evaluated with Biacore Evaluation software. Double referencing was used and the 1:1 binding model was used to fit the raw data.

Data set [3] concerns the target T2, human CTGF (Homo sapiens, UniProt P29279, H83D).
T2 construct: purchased Creative Biomart
As to the kind of experiment: SPR binding kinetics and affinity, human CTGF. Details: key to human CTGF kon / human CTGF koff / human CTGF KD: B binding without determination of kinetics constants. The note with it: 25° C., 1:1 binding model. How it is done:
as §1, §2, §3, §4
(SPR reads the build-up and loss of mass on a sensor chip optically.)

A further data set deals with T3, Murine CTGF (Mus musculus, UniProt P29268).
T3 construct: purchased Abbexa
T3 sequence (P29268 26-348): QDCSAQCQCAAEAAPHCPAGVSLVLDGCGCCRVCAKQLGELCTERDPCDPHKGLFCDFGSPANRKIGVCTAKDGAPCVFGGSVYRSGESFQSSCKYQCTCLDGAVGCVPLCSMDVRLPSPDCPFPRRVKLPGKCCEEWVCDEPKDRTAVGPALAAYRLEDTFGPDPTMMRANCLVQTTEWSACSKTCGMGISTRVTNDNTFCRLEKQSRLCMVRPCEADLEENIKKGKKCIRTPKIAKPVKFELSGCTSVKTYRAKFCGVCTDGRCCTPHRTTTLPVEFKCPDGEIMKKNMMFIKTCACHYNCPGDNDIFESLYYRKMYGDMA
As to the kind of experiment: SPR binding kinetics and affinity, murine CTGF. Also noted: key to Murine CTGF kon / Murine CTGF koff / Murine CTGF KD: B binding without determination of kinetics constants. The conditions noted are these: 25° C., 1:1 binding model. The procedure:
as §1, §2, §3, §4
The values determined for kon, koff and the resulting equilibrium dissociation constant (KD) for exemplary lipocalin muteins are summarized in Table 4.

T2 sequence (P29279 with tags, fused parts or gaps H83D): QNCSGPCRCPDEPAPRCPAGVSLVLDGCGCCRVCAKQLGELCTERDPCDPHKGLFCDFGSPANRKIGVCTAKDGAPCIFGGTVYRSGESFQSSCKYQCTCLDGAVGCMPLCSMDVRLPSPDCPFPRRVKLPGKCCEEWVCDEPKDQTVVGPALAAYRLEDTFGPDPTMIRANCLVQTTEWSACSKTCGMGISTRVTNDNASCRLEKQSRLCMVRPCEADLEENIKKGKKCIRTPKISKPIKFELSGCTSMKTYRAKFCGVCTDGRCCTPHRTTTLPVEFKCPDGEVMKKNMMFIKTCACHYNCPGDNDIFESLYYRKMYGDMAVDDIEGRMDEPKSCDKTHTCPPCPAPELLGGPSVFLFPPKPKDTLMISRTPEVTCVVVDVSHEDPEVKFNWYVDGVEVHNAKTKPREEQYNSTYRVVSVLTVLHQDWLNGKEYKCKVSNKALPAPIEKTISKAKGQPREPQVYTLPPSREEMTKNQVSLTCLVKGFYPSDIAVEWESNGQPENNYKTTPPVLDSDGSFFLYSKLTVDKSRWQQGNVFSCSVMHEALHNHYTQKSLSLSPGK
T1 sequence (P29279 with tags, fused parts or gaps H83D): as above

B1: SEQ ID NO: 75: fusion protein comprising two CTGF-binding lipocalin muteins (protein)
chain: QDSTSDLIPAPPLSKVPLQQNFQDNQFQGKWYVVGLAGNAILREDKQPAKMFATIYELKEDKSYDVTSVRFEAKSCKYTIKTFVPGSQPGEFTAGYIKSAPGQTSTLVRVVSTNYNQHAMVFFKHVTQNREIFVITLYGRTKELTSELKENFIRFSKSLGLPENHIVFPVPIDQCIDGGGGGSGGGGSGGGGSQDSTSDLIPAPPLSKVPLQQNFQDNQFQGKWYVVGLAGNYRLREDKDPSKMGATIYELKEDKSYDVTQVQFDDKKCLYVIETFVPGSQPGEFTLGAIKSYPGLTSQLVRVVSTNYNQHAMVFVKKVWPNLEYFQIVLYGRTKELTSELKENFIRFSKSLGLPENHIVFPVPIDQCIDG
modifications: fusion protein
In the case of B1, in data set [1], the “ONSET MELTING” value was 58 °C and the TM was 65 °C.

B2: SEQ ID NO: 73: fusion protein comprising two CTGF-binding lipocalin muteins (protein)
chain: QDSTSDLIPAPPLSKVPLQQNFQDNQFQGKWYVVGLAGNAILREDKYPAKMFATIYELKEDKSYDVTSVRFENKSCVYTSKTFVPGSQPGEFTTGNIKSAPGQTSTLVRVVSTNYNQHAMVFFKHVSQNREFFVITLYGRTKELTSELKENFIRFSKSLGLPENHIVFPVPIDQCIDGGGGGSGGGGSGGGGSQDSTSDLIPAPPLSKVPLQQNFQDNQFQGKWYVVGWAGNVKLREDKQPQKMSATIYELKEDKSYDVTEVVFEQKKCHYIIKTFVPGSQPGEFTAGDIKSPPGYTSSLVRVVSTNYNQHAMVFFKKVSQNREFFWITLYGRTKELTSELKENFIRFSKSLGLPENHIVFPVPIDQCIDG
modifications: fusion protein
As for B2, in data set [1], the “ONSET MELTING” value amounted to 71 °C and the TM turned out to be 75 °C.

B3: SEQ ID NO: 8: optimized CTGF-binding hNGAL lipocalin mutein (protein)
chain: QDSTSDLIPAPPLSKVPLQQNFQDNQFQGKWYVVGLAGNYGLRTDKRPSKMFATIYELKEDKSYDVTSVRFEQERCHYTIRTFVPGSQPGEFTSGNIGNYPGSYSTLVRVVSTNYNQHAMVFFKSVIQNREYFAITLYGRTKELTSELKENFIRFSKSLGLPENHIVFPVPIDQCIDG
modifications: lipocalin mutein
As to B3, in data set [1], the “ONSET MELTING” value turned out to be 49 °C and the TM was determined as 75 °C. Besides, the “human CTGF koff” value in the data set with human CTGF [2] is 0.000114 s⁻¹. Further, the “human CTGF kon” value with human CTGF [3] stood at 45400 M⁻¹ s⁻¹. For the same molecule, in the data set with Murine CTGF, the “Murine CTGF koff” value is 0.000131 s⁻¹ and the “Murine CTGF kon” value is 72000 M⁻¹ s⁻¹.

B4: SEQ ID NO: 17: optimized CTGF-binding hNGAL lipocalin mutein (protein)
chain: QDSTSDLIPAPPLSKVPLQQNFQDNQFQGKWYVVGLAGNAILRTDKQPAKMFATIYELKEDKSYDVTSVRFEAKSCVYTSKTFVPGSQPGEFTAGNIKSAPGQTSTLVRVVSTNYNQHAMVFFKHVSQNREFFVITLYGRTKELTSELKENFIRFSKSLGLPENHIVFPVPIDQCIDG
modifications: lipocalin mutein
For B4, in data set [1], the “ONSET MELTING” value turned out to be 59 °C and the TM came to 74 °C. In the data set with human CTGF [3], the “human CTGF KD” value was “B”, the “human CTGF koff” value is “B” and the “human CTGF kon” value is reported as “B”. For the same molecule, in the data set with Murine CTGF, the “Murine CTGF KD” value was “B”, the “Murine CTGF koff” value was “B” and the “Murine CTGF kon” value is “B”.

B5: SEQ ID NO: 18: optimized CTGF-binding hNGAL lipocalin mutein (protein)
chain: QDSTSDLIPAPPLSKVPLQQNFQDNQFQGKWYVVGIAGNAILRDDKYPAKMFATIYELKEDKSYDVTSVRFENKSCIYTIKTFVPGSQPGEFTHGNIKSHPGQTSTLVRVVSTNYNQHAMVFFKHVSQNREIFVITLYGRTKELTSELKENFIRFSKSLGLPENHIVFPVPIDQCIDG
modifications: lipocalin mutein
On to B5, for which the “human CTGF koff” value with human CTGF [2] was determined as 3.05e-06 s⁻¹. The “human CTGF kon” value with human CTGF [3] was 40900 M⁻¹ s⁻¹. Also, in the data set with Murine CTGF, the “Murine CTGF KD” value is “B”, the “Murine CTGF koff” value is “B” and the “Murine CTGF kon” value was “B”.

B6: SEQ ID NO: 20: optimized CTGF-binding hNGAL lipocalin mutein (protein)
chain: QDSTSDLIPAPPLSKVPLQQNFQDNQFQGKWYVVGLAGNAILREDKQPAKMFATIYELKEDKSYDVTSVRFEAKSCSYTIKTFVPGSQPGEFTAGNIKSAPGQTSTLVRVVSTNYNQHAMVFAKAVQLNREHFFITLYGRTKELTSELKENFIRFSKSLGLPENHIVFPVPIDQCIDG
modifications: lipocalin mutein
B6: in data set [1], the “ONSET MELTING” value was found to be 46 °C and the TM turned out to be 61 °C. In the data set with human CTGF [3], the “human CTGF KD” value is “B”, the “human CTGF koff” value is recorded as “B” and the “human CTGF kon” value was “B”. Besides, in the data set with Murine CTGF, the “Murine CTGF KD” value is “B”, the “Murine CTGF koff” value is on record as “B” and the “Murine CTGF kon” value is “B”.

B7: SEQ ID NO: 13: optimized CTGF-binding hNGAL lipocalin mutein (protein)
chain: QDSTSDLIPAPPLSKVPLQQNFQDNQFQGKWYVVGLAGNAILREDKYPAKMFATIYELKEDKSYDVTSVRFENKSCVYTSKTFVPGSQPGEFTTGNIKSAPGQTSTLVRVVSTNYNQHAMVFFKHVSQNREFFVITLYGRTKELTSELKENFIRFSKSLGLPENHIVFPVPIDQCIDG
modifications: lipocalin mutein
Regarding B7, the “human CTGF koff” value with human CTGF [2] came to 2.51e-06 s⁻¹. Moreover, in the data set with human CTGF [3], the “human CTGF kon” value amounted to 51000 M⁻¹ s⁻¹. Further, in the data set with Murine CTGF, the “Murine CTGF KD” value is given as “B”, the “Murine CTGF koff” value was “B” and the “Murine CTGF kon” value is reported as “B”.

B8: SEQ ID NO: 12: optimized CTGF-binding hNGAL lipocalin mutein (protein)
chain: QDSTSDLIPAPPLSKVPLQQNFQDNQFQGKWYVVGLAGNAILREDKYPAKMFATIYELKEDKSYDVTSVRFENKSCVYTIKTFVPGSQPGEFTTGNIKSAPGQTSTLVRVVSTNYNQHAMVFFKHVSQNREFFVITLYGRTKELTSELKENFIRFSKSLGLPENHIVFPVPIDQCIDG
modifications: lipocalin mutein
On to B8, for which, in the data set with human CTGF [2], the “human CTGF koff” value stood at 0.000133 s⁻¹. Besides, in the data set with human CTGF [3], the “human CTGF kon” value came to 55600 M⁻¹ s⁻¹. Further, in the data set with Murine CTGF, the “Murine CTGF koff” value turned out to be 0.000128 s⁻¹ and the “Murine CTGF kon” value was 91400 M⁻¹ s⁻¹.

B9: SEQ ID NO: 11: optimized CTGF-binding hNGAL lipocalin mutein (protein)
chain: QDSTSDLIPAPPLSKVPLQQNFQDNQFQGKWYVVGLAGNAILREDKQPAKMFATIYELKEDKSYDVTSVRFEAKSCSYTSKTFVPGSQPGEFTAGNIKSAPGQTSTLVRVVSTNYNQHAMVFFKHVSQNRETFVITLYGRTKELTSELKENFIRFSKSLGLPENHIVFPVPIDQCIDG
modifications: lipocalin mutein
Consider B9, for which the “human CTGF koff” value with human CTGF [2] worked out at 0.000108 s⁻¹. The “human CTGF kon” value with human CTGF [3] is 44400 M⁻¹ s⁻¹. In the data set with Murine CTGF, the “Murine CTGF koff” value worked out at 8.19e-05 s⁻¹ and the “Murine CTGF kon” value was 80100 M⁻¹ s⁻¹.
